Data reported in the supplement of paper PMC9942255.

Test system: Bacillus subtilis DB104 (SP-AmyQ fusion secretion)
Assay: AmyQ secretion efficiency, weighted average sort bin (1 = best secretion, 10 = worst) (bin number (weighted average, 1-10)); higher = lower secretion efficiency
Method in brief: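 Occupied alginate beads were sorted by large-particle flow cytometry into 10 equally populated bins according to green/red fluorescence ratio. Each bead (~65 nL) held fluorescein-starch and about 0.3 cells of a B. subtilis DB104 library expressing mature AmyQ fused to designed signal peptides from the amyE locus, and beads were grown about 13 h at room temperature and stained with nile red before sorting. Bin amplicons were Illumina-sequenced, and the secretion score is the read-frequency-weighted average bin number, normalised to beads per bin, excluding low-abundance sequences.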

MKRSISRKITCLLITLLTMGGMIASPASAAGT
AmyQ secretion efficiency: 2.01

MKRSISRRRKCLLITLLTMGGMIASPASAAGT
AmyQ secretion efficiency: 2.97

MKRSMLFILVLSFLSIIVAYPIQTNASPM
AmyQ secretion efficiency: 2.84

MKRSSGKQLIGIMLLTFAPSAFAKQD
AmyQ secretion efficiency: 3.5

MKRSYVSLRVWMVFLMNWVTPDRKTAAAAVY
AmyQ secretion efficiency: 6.51

MKRTLPLLIVCLAFSSFSASARAASE
AmyQ secretion efficiency: 2.25

MKRTRIPMYLALGAALTIAPLSFASAEEN
AmyQ secretion efficiency: 3.6

MKRTSTAYLLLGILCSAAVFLIGAPSRALGAEV
AmyQ secretion efficiency: 2.85

MKRTTNLTMLCLWFTVFSLFLVLLPGKALGAVD
AmyQ secretion efficiency: 4.04

MKRTWNGCGQGQLSVLLVAGSVPFHAEAKKP
AmyQ secretion efficiency: 2.05

MKRTWNRCGSSYKTYYLVAGSVPFHAEAKKP
AmyQ secretion efficiency: 6.5

MKRTWNRQRKVCLTALLSVLLVAGSVPFHAEAKKP
AmyQ secretion efficiency: 2.09

MKRTWNTCLTALLSVLLVAGSVPFHAEAKKP
AmyQ secretion efficiency: 2.37

MKRTWNTTTVCLTALLSVLLVAGSVPFHAEAKKP
AmyQ secretion efficiency: 2.17

MKRTWNVCKRALLSVLLVAGSVPFHAEAKKP
AmyQ secretion efficiency: 3.1

MKRTWNVCLIALLMVLLVAIFVTSPFHAEAKKP
AmyQ secretion efficiency: 2.11

MKRTWNVCLTALLSVLLVAGSVDDHAEAKKP
AmyQ secretion efficiency: 1.97

MKRTWNVCLTALLSVLLVAGSVGFVAEAKKP
AmyQ secretion efficiency: 3.4

MKRTWNVCLTALLSVLLVAGSVKRKKHAEAKKP
AmyQ secretion efficiency: 7.43

MKRTWNVCLTALLSVLLVAGSVPFHAEAAKK
AmyQ secretion efficiency: 2.52

MKRTWNVCLTALLSVLLVAGSVPFHAEAAPD
AmyQ secretion efficiency: 2.13

MKRTWNVCLTALLSVLLVAGSVPFHAEAAPK
AmyQ secretion efficiency: 2.29

MKRTWNVCLTALLSVLLVAGSVPFHAEAKKK
AmyQ secretion efficiency: 2.67

MKRTWNVCLTALLSVLLVAGSVPFHGEAKKP
AmyQ secretion efficiency: 2.79

MKRTWNVCLTALLSVLLVAGSVPFHMEAKKP
AmyQ secretion efficiency: 2.19

MKRTWNVCLTALLSVLLVAGSVPFHVEAKKP
AmyQ secretion efficiency: 2

MKRTWNVCLTALLSVLLVAGSVPSHAEAKKP
AmyQ secretion efficiency: 1.85

MKRTWNVCLTALLSVLLVAGSVRRRRKRKHAEAKKP
AmyQ secretion efficiency: 8.2

MKRTWNVCLTALLSVLLVAGSVTFHAEAKKP
AmyQ secretion efficiency: 2.82

MKRTWNVCLTALLSVLLVAGSVTLVAAPFHAEAKKP
AmyQ secretion efficiency: 2.5

MKRTWNVCLTALLSVLLVAGSVVPFHAEAKKP
AmyQ secretion efficiency: 1.9

MKRTWNVCLTALLSVLLVAPFHAEAKKP
AmyQ secretion efficiency: 4.3

MKRTWNVCLTALLSVPFHAEAKKP
AmyQ secretion efficiency: 6.8

MKRVCLTALLSVLLVAGSVPFHAEAKKP
AmyQ secretion efficiency: 2.1

MKRVLTGSVLSLGLLVSASPAFATSP
AmyQ secretion efficiency: 1.56

MKRWMRKTLVVLFTIVTFGLVSPPAALMADKP
AmyQ secretion efficiency: 2.03

MKRYKQRLRVWMVFLMNWVTPDRKTAAAAVY
AmyQ secretion efficiency: 6.82

MKRYRQKCLLLVTIMFLGVLFGMQQANHG
AmyQ secretion efficiency: 5.69

MKRYYVRMTLPLLIVCLAFSSFSASARAASE
AmyQ secretion efficiency: 2.74

MKSAKSVSALTPSTTLAITAKAKEL
AmyQ secretion efficiency: 6.91

MKSCKQKQVCSLAAILLLIPSVSFAADS
AmyQ secretion efficiency: 6.15

MKSCKQLIVCSLAAILLLDPQPSFAADS
AmyQ secretion efficiency: 4.16

MKSCKQLIVCSLAAILLLIPSVAFAADS
AmyQ secretion efficiency: 2.83

MKSCKQLIVCSLAAILLLIPSVSFAADD
AmyQ secretion efficiency: 2.66

MKSCKQLIVCSLAAILLLIPSVSFAAPD
AmyQ secretion efficiency: 2.43

MKSCKQLIVCSLAAILLLIPSVSFAAPR
AmyQ secretion efficiency: 1.96

MKSCKQLIVCSLAAILLLIPSVSFAKRK
AmyQ secretion efficiency: 2.42

MKSCKQLIVCSLAAILLLIPSVSFGADS
AmyQ secretion efficiency: 3.57

MKSCKQLIVCSLAAILLLIPSVSFSADS
AmyQ secretion efficiency: 4.65

MKSCKQLIVCSLAAILLLIPSVSFSTSTGASSFAADS
AmyQ secretion efficiency: 6.07

MKSCKQLIVCSLAAILLLIPSVWFAADS
AmyQ secretion efficiency: 4.55

MKSCKQLIVCSLAAILLLKRKKKRSFAADS
AmyQ secretion efficiency: 7.68

MKSCKQLIVCSLAAILLLLSLTFIPSVSFAADS
AmyQ secretion efficiency: 3.91

MKSCKQLIVCSLAAILLLPPEVSFAADS
AmyQ secretion efficiency: 2.83

MKSCKQLIVCSLAAILLLRRKVSFAADS
AmyQ secretion efficiency: 7.65

MKSCKQLRRCKRRRILLLIPSVSFAADS
AmyQ secretion efficiency: 7.57

MKSCKQYKRCQYSSILLLIPSVSFAADS
AmyQ secretion efficiency: 7.62

MKSKGSIMACKKKKSFTITTFINTETISAFSN
AmyQ secretion efficiency: 7.29

MKSKGSIMACKRLFSFTITTFINTETISAFSN
AmyQ secretion efficiency: 6.73

MKSKGSIMACLILFLFMIFTFINTETISAFSN
AmyQ secretion efficiency: 5.32

MKSKGSIMACLILFSFTITDEINTETISAFSN
AmyQ secretion efficiency: 6.09

MKSKGSIMACLILFSFTITEDEEEETISAFSN
AmyQ secretion efficiency: 6.65

MKSKGSIMACLILFSFTITEISAFSN
AmyQ secretion efficiency: 6.82

MKSKGSIMACLILFSFTITGDPNTETISAFSN
AmyQ secretion efficiency: 4.93

MKSKGSIMACLILFSFTITIILVTLIIVATFINTETISAFSN
AmyQ secretion efficiency: 6.84

MKSKGSIMACLILFSFTITRKKRKKTISAFSN
AmyQ secretion efficiency: 7.38

MKSKGSIMACLILFSFTITSTVSATTFINTETISAFSN
AmyQ secretion efficiency: 6.02

MKSKGSIMACLILFSFTITTFIAFITISAFSN
AmyQ secretion efficiency: 5.09

MKSKGSIMACLILFSFTITTFINEISAFSN
AmyQ secretion efficiency: 6.8

MKSKGSIMACLILFSFTITTFINTETASAFSN
AmyQ secretion efficiency: 4.22

MKSKGSIMACLILFSFTITTFINTETCSAFSN
AmyQ secretion efficiency: 4.49

MKSKGSIMACLILFSFTITTFINTETESAFSN
AmyQ secretion efficiency: 7.01

MKSKGSIMACLILFSFTITTFINTETFSAFSN
AmyQ secretion efficiency: 7.43

MKSKGSIMACLILFSFTITTFINTETGSAFSN
AmyQ secretion efficiency: 5.58

MKSKGSIMACLILFSFTITTFINTETGSISAFSN
AmyQ secretion efficiency: 5.66

MKSKGSIMACLILFSFTITTFINTETHSAFSN
AmyQ secretion efficiency: 7.73

MKSKGSIMACLILFSFTITTFINTETISAEED
AmyQ secretion efficiency: 4.14

MKSKGSIMACLILFSFTITTFINTETISAFRR
AmyQ secretion efficiency: 6.09

MKSKGSIMACLILFSFTITTFINTETISAFSD
AmyQ secretion efficiency: 6.02

MKSKGSIMACLILFSFTITTFINTETISAFSR
AmyQ secretion efficiency: 3.97

MKSKGSIMACLILFSFTITTFINTETISCFSN
AmyQ secretion efficiency: 7.73

MKSKGSIMACLILFSFTITTFINTETISDFSN
AmyQ secretion efficiency: 6.98

MKSKGSIMACLILFSFTITTFINTETISEFSN
AmyQ secretion efficiency: 7.72

MKSKGSIMACLILFSFTITTFINTETISFFSN
AmyQ secretion efficiency: 6.76

MKSKGSIMACLILFSFTITTFINTETISGFSN
AmyQ secretion efficiency: 6.11

MKSKGSIMACLILFSFTITTFINTETISHFSN
AmyQ secretion efficiency: 7.54

MKSKGSIMACLILFSFTITTFINTETISKFSN
AmyQ secretion efficiency: 7.47

MKSKGSIMACLILFSFTITTFINTETISLFSN
AmyQ secretion efficiency: 7.29

MKSKGSIMACLILFSFTITTFINTETISMFSN
AmyQ secretion efficiency: 7.38

MKSKGSIMACLILFSFTITTFINTETISNFSN
AmyQ secretion efficiency: 7.44

MKSKGSIMACLILFSFTITTFINTETISPFSN
AmyQ secretion efficiency: 7.51

MKSKGSIMACLILFSFTITTFINTETISQFSN
AmyQ secretion efficiency: 7.33

MKSKGSIMACLILFSFTITTFINTETISRFSN
AmyQ secretion efficiency: 8.63

MKSKGSIMACLILFSFTITTFINTETISTFSN
AmyQ secretion efficiency: 7.54

MKSKGSIMACLILFSFTITTFINTETISVFSN
AmyQ secretion efficiency: 7.71

MKSKGSIMACLILFSFTITTFINTETISYFSN
AmyQ secretion efficiency: 7.41

MKSKGSIMACLILFSFTITTFINTETKSAFSN
AmyQ secretion efficiency: 6.7

MKSKGSIMACLILFSFTITTFINTETLSAFSN
AmyQ secretion efficiency: 6.34

MKSKGSIMACLILFSFTITTFINTETMSAFSN
AmyQ secretion efficiency: 5.38

MKSKGSIMACLILFSFTITTFINTETPSAFSN
AmyQ secretion efficiency: 5.71

MKSKGSIMACLILFSFTITTFINTETRSAFSN
AmyQ secretion efficiency: 8.47

MKSKGSIMACLILFSFTITTFINTETSSAFSN
AmyQ secretion efficiency: 3.41

MKSKGSIMACLILFSFTITTFINTETSSVFTPISAFSN
AmyQ secretion efficiency: 6.5

MKSKGSIMACLILFSFTITTFINTETTSAFSN
AmyQ secretion efficiency: 5.51

MKSKGSIMACLILFSFTITTFINTETWSAFSN
AmyQ secretion efficiency: 7.56

MKSKGSIMACLILFSFTITTFINTGTISAFSN
AmyQ secretion efficiency: 4.33

MKSKGSIMACLILFSFTITTFISVETISAFSN
AmyQ secretion efficiency: 5.39

MKSKGSIMACLILFSFTITTTINTETISAFSN
AmyQ secretion efficiency: 5.95

MKSKGSIMACLILFSFTITTVTFINTETISAFSN
AmyQ secretion efficiency: 5.25

MKSKGSIMACLILFSFTTFINTETISAFSN
AmyQ secretion efficiency: 4.68

MKSKGSIMACRRKRRRTITTFINTETISAFSN
AmyQ secretion efficiency: 6.8

MKSKGSIMIFIFACLILFSFTITTFINTETISAFSN
AmyQ secretion efficiency: 7.77

MKSKGSIMKCQILFSFTITTFINTETISAFSN
AmyQ secretion efficiency: 6.89

MKSKGSIMSACLILFSFTITTFINTETISAFSN
AmyQ secretion efficiency: 3.07

MKSKGSIMSCLILFSFTITTFINTETISAFSN
AmyQ secretion efficiency: 3.29

MKSKVKIAGVLTVAAAAMTAKMYATAKGN
AmyQ secretion efficiency: 7.17

MKSKWMRQKRLVAVGFSFTQVMVHAGET
AmyQ secretion efficiency: 8.54

MKSKWMSGLLLVAVGFSFAIVMVHAGET
AmyQ secretion efficiency: 5.38

MKSKWMSGLLLVAVGFSFIALFATQVMVHAGET
AmyQ secretion efficiency: 7.59

MKSKWMSGLLLVAVGFSFITQVMVHAGET
AmyQ secretion efficiency: 6.13

MKSKWMSGLLLVAVGFSFRKKKKKVHAGET
AmyQ secretion efficiency: 7.2

MKSKWMSGLLLVAVGFSFRKKMVHAGET
AmyQ secretion efficiency: 7.87

MKSKWMSGLLLVAVGFSFTLFSSAVVSTQVMVHAGET
AmyQ secretion efficiency: 7.18
